The source of these data is the supplement of paper PMC7125110.

Sequences and labels used below:
B1: glmS ribozyme (parent)
chain: AUAAAAGCGCCAGAACUACAGAAAUGUAGUUGACGAGGAGGAGGUUUAUCGAAUUUUCGGCGGAUGCCUCCAAA

What all share (conditions): with glucosamine-6-phosphate
In data set [1] the parent is B1. Briefly: self-cleavage kobs at 640 uM GlcN6P; higher = faster cleavage; RNA array. A digest of the protocol: (§1)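 Barcoded ribozyme variants were transcribed in situ on sequenced MiSeq chips by E. coli RNA polymerase. At 37 °C, a hybridised Cy3 probe tracked them while glucosamine-6-phosphate (40 μM to 10 mM) in HEPES/KCl/Mg(OAc)2 buffer flowed in and tiles were imaged over ~14 h. Per-tile medians of signals normalised to baseline and to non-cleaving reference variants were fit to one- or two-exponential decays, giving kobs. kcat and KM came from weighted Michaelis–Menten fits across concentrations.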

In data set [2] the parent is B1. Briefly: self-cleavage kobs at 2500 uM GlcN6P; higher = faster cleavage; RNA array. An outline of the steps:
as §1

Variants of B1 are the subject of data set [3]. Briefly: self-cleavage kobs at 10000 uM GlcN6P; higher = faster cleavage; RNA array. An outline of the steps:
as §1

± gives the standard error. Variants at the floor of the assay were thinned out. Where only a bound is given, the exact number is not on record here.

On to A12U U31C C67U, for which the “self-cleavage kobs at 640 uM GlcN6P” value in data set [1] was 0.000286 ± 9.1e-05 s⁻¹.

As to C10G U30C C68G, the “self-cleavage kobs at 640 uM GlcN6P” value in data set [1] stood at 9.65e-05 ± 3.5e-05 s⁻¹. Turning to G7C A14C G44A G63A, the “self-cleavage kobs at 640 uM GlcN6P” value in data set [1] was less than 1e-05 s⁻¹. Moreover, the “self-cleavage kobs at 2500 uM GlcN6P” value in data set [2] was less than 1e-05 s⁻¹. C11U A14G A52G: the “self-cleavage kobs at 640 uM GlcN6P” value in data set [1] came to 8.93e-05 ± 1.6e-05 s⁻¹. In addition, in data set [2], the “self-cleavage kobs at 2500 uM GlcN6P” value was 0.00029 ± 8e-05 s⁻¹. Taken in the same sequence, the figures for U31C G32A U55A were 0.000149 ± 2.6e-05 s⁻¹ and 0.000644 ± 0.00017 s⁻¹.

For C10G G60U G63U, the “self-cleavage kobs at 640 uM GlcN6P” value in data set [1] is less than 1e-05 s⁻¹. On the same count and under the same terms, with U30G G37C G41A A48U A53U C68G C70U the figure was less than 1e-05 s⁻¹; with A14G A52U G60A, less than 1e-05 s⁻¹. In the case of A42C U65G U69G, the “self-cleavage kobs at 640 uM GlcN6P” value in data set [1] worked out at 0.000819 ± 0.00019 s⁻¹. For the same variant, the “self-cleavage kobs at 2500 uM GlcN6P” value in data set [2] stood at 0.00302 ± 0.00061 s⁻¹. Further, the “self-cleavage kobs at 10000 uM GlcN6P” value in data set [3] worked out at 0.00402 ± 0.001 s⁻¹.

U31G G51U: the “self-cleavage kobs at 640 uM GlcN6P” value in data set [1] was less than 1e-05 s⁻¹.

For the variant G38A A52G C68G, the “self-cleavage kobs at 640 uM GlcN6P” value in data set [1] was determined as 7.2e-05 ± 2.5e-05 s⁻¹. In the case of A39U C58A A64U, the “self-cleavage kobs at 640 uM GlcN6P” value in data set [1] is less than 1e-05 s⁻¹. The “self-cleavage kobs at 2500 uM GlcN6P” value in data set [2] was less than 1e-05 s⁻¹. With A33C C34A U57G, the “self-cleavage kobs at 640 uM GlcN6P” value in data set [1] is less than 1e-05 s⁻¹. The same measure, in the same setting: the result for C16U G38C reads less than 1e-05 s⁻¹. Same read-out and setting: with G37A A48U U54C the figure was less than 1e-05 s⁻¹. As to C16G A33U G38A G43U C67U, the “self-cleavage kobs at 640 uM GlcN6P” value in data set [1] was less than 1e-05 s⁻¹. Besides, the “self-cleavage kobs at 2500 uM GlcN6P” value in data set [2] was less than 1e-05 s⁻¹. Consider C50G C61U G66U, for which the “self-cleavage kobs at 640 uM GlcN6P” value in data set [1] stood at 7.98e-05 ± 2.8e-05 s⁻¹. Further, in data set [2], the “self-cleavage kobs at 2500 uM GlcN6P” value amounted to 0.00022 ± 8e-05 s⁻¹. Taken in the same sequence, the figures for A39U G41U A42U were 5.35e-05 ± 1.4e-05 s⁻¹ and 0.000135 ± 2.2e-05 s⁻¹.

For the variant G9U C10U G38U G44C U49C, in data set [1], the “self-cleavage kobs at 640 uM GlcN6P” value was less than 1e-05 s⁻¹. With A12G A48C A52U, the “self-cleavage kobs at 640 uM GlcN6P” value in data set [1] was less than 1e-05 s⁻¹. Further, in data set [2], the “self-cleavage kobs at 2500 uM GlcN6P” value is less than 1e-05 s⁻¹. On to C10A U30C G37U, for which, in data set [1], the “self-cleavage kobs at 640 uM GlcN6P” value is less than 1e-05 s⁻¹. The same measure, in the same setting: the result for A14U C58A C70A reads 7.42e-05 ± 2.4e-05 s⁻¹. On the same count and under the same terms, the result for G44C A48U C50A reads less than 1e-05 s⁻¹. On to A39G U45A U57C, for which, in data set [1], the “self-cleavage kobs at 640 uM GlcN6P” value was 0.000107 ± 2.6e-05 s⁻¹. The “self-cleavage kobs at 2500 uM GlcN6P” value in data set [2] is 0.000294 ± 7.7e-05 s⁻¹.

On to C10G C11U G41A C70U, for which, in data set [1], the “self-cleavage kobs at 640 uM GlcN6P” value is less than 1e-05 s⁻¹.

Consider G41A U49C G60U, for which, in data set [1], the “self-cleavage kobs at 640 uM GlcN6P” value is less than 1e-05 s⁻¹. For C58A G60U, the “self-cleavage kobs at 640 uM GlcN6P” value in data set [1] was less than 1e-05 s⁻¹. For the same variant, in data set [2], the “self-cleavage kobs at 2500 uM GlcN6P” value was less than 1e-05 s⁻¹. Moreover, in data set [3], the “self-cleavage kobs at 10000 uM GlcN6P” value is less than 1e-05 s⁻¹. As for G35A U45G U57C, the “self-cleavage kobs at 640 uM GlcN6P” value in data set [1] was less than 1e-05 s⁻¹.

Take U30A C71G: the “self-cleavage kobs at 640 uM GlcN6P” value in data set [1] is 0.000371 ± 0.00016 s⁻¹. In addition, the “self-cleavage kobs at 2500 uM GlcN6P” value in data set [2] was 0.000129 ± 5.8e-05 s⁻¹. In addition, the “self-cleavage kobs at 10000 uM GlcN6P” value in data set [3] is 0.00032 ± 7.6e-05 s⁻¹. For the variant C16A G60U U69G, the “self-cleavage kobs at 640 uM GlcN6P” value in data set [1] was less than 1e-05 s⁻¹. Take G29A U56A A64G: the “self-cleavage kobs at 640 uM GlcN6P” value in data set [1] worked out at 0.000408 ± 0.00012 s⁻¹. The “self-cleavage kobs at 2500 uM GlcN6P” value in data set [2] was 0.00201 ± 0.00043 s⁻¹. Also, in data set [3], the “self-cleavage kobs at 10000 uM GlcN6P” value came out at 0.00195 ± 0.00041 s⁻¹. For the variant G60C C68G C70U, in data set [1], the “self-cleavage kobs at 640 uM GlcN6P” value was less than 1e-05 s⁻¹. Also, the “self-cleavage kobs at 2500 uM GlcN6P” value in data set [2] was less than 1e-05 s⁻¹. In the case of A6U G29U G32U A42G U47A C71G, in data set [1], the “self-cleavage kobs at 640 uM GlcN6P” value is less than 1e-05 s⁻¹. Besides, the “self-cleavage kobs at 2500 uM GlcN6P” value in data set [2] is less than 1e-05 s⁻¹.
